From patent US20170298106A1 (ZYNGENIA, published 2017)

Assays:
[1] = target: T1, angiopoietin-2 (Ang2) (human, UniProt O15123 68-496, limits assumed); experiment: ELISA, MRD-MBP fusions on plate-bound rhAng2, anti-MBP detection
T1 construct: Plain and biotinylated Ang2 are kept as one molecule; also called rhAng2; recombinant Ang2
T1 sequence (looked up): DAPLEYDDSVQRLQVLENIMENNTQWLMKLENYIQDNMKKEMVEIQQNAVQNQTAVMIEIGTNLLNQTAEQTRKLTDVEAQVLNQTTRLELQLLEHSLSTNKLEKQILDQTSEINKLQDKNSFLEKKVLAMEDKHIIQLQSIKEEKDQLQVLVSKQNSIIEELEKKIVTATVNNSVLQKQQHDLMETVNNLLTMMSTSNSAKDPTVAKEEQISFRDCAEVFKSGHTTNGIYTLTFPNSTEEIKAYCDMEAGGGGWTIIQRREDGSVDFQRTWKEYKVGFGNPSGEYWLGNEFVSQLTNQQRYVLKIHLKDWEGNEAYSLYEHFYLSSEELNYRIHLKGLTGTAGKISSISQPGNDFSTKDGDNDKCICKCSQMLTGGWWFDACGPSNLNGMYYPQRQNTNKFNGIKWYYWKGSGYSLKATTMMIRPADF
Experimental: (§1) MBP fusion proteins were serially diluted in Blocking buffer and added to wells for 2 hours at RT. After washing (8×300 μl wash buffer), samples were treated with HRP-mouse anti MBP mAb (NEB, cat # E8038S), diluted 1:4000 in Blocking buffer. After incubation for 1 hour at RT, wells were washed (8×300 μl wash buffer) prior to receiving 100 μl of TMB substrate (KPL Laboratories). Color development was stopped with 100 μl of H₂SO₄, and absorbance was read at 450 nm.
(§2) Bound fusion proteins were detected with anti-MBP mAb. Assayed proteins represent mutational variants of the sequence […] […] (L17D) (SEQ ID NO:107). In this series, the motif MDD within L17D was mutated at the first D to all other possible amino acids (except cysteine). Other MRDs tested were “Lm32 KtoS” and a dimer of Lm32 (2×Lm32).

[2] = target: T1, angiopoietin-2 (Ang2); experiment: ELISA on rhAng2-coated wells, MRD-MBP fusion, anti-MBP detection; EC50 by 4 parameter fit
Experimental: as §1, §2

B1: 2×Lm32-MBP fusion (other, not shown: small tags and cut ends)
peptide: PGKGGGSMGAQTNFMPMDNDELLLYEQFILQQGLEGGGSMGAQTNFMPMDNDELLLYEQFILQQGLE
notes: also called Lm32 dimer
**Q.** How did the “fold higher affinity than L17D or Lm32 KtoS” value [1] turn out when B1 was run?
**A.** > 10 fold

**Q.** What about the EC50 [2] of the same binder?
**A.** 5 pM
